In assay [1] the target is T1, 人PD-L2，稳定表达于U2OS细胞系 (PD-L2-U2OS) (human, UniProt Q9BQ51 20-273).
T1 sequence (looked up): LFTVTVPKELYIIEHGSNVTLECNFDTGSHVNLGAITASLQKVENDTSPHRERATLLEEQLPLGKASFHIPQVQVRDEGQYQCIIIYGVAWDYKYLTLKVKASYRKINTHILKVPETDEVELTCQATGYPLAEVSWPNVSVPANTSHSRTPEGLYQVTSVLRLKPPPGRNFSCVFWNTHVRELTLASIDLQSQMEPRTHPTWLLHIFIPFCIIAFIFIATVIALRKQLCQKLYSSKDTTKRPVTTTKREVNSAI
As to the kind of experiment: cell-based or functional assay.

The target of assay [2] is T2, hPD-L2-His (ACRObiosystems，目录号:PD2-H5220) (human, UniProt Q9BQ51 20-219).
T2 construct: Bought protein (ACRObiosystems PD2-H5220); also called 人PD-L2抗原; 重组体hPD-L2-His蛋白; not shown: His tag
T2 sequence (looked up): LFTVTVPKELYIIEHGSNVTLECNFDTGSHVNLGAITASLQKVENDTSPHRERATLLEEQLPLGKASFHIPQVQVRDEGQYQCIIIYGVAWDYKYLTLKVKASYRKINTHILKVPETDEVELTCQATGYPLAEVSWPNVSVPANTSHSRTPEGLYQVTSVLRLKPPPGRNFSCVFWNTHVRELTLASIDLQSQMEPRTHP
As to the kind of experiment: ELISA, coated hPD-L2-His. On the technique in general: An ELISA detects its analyte on a solid surface through an enzyme-linked reagent.

Assay [3] addresses T1, 人PD-L2，稳定表达于U2OS细胞系 (PD-L2-U2OS). Put plainly: flow cytometry on PD-L2-U2OS cells. On the technique in general: A flow cytometer gives signals particle by particle.

B1: 人源化7A7-1.1抗体 (antibody, human IgG1, kappa, V domains shown)
VH: QVQLVQSGAEVKKPGASVKVSCKASGYSFSGYTMNWVRQAPGQGLEWMGLISPYNGVTTYAQKFQGRVTMTVDTSTNTVYMELSSLRSEDTAVYYCARGVTVPLRFDVWGQGTLVTVSS
VL: DIQMTQSPSSLSASVGDRVTITCKSSQSLLNSGNQKNYLTWYQQKPGKAPKLLIYWASTRESGVPSRFSGSGSGTDFTLTISSLQPEDFATYYCQNDDSYPLTFGQGTKVEIKR
notes: human IgG1 / human kappa; also called Hz7A7-1.1
Consider B1, for which the “IC50(ng/mL), 化学发光信号, 基于细胞的抗体阻断分析” value in assay [1] was 585 ng/mL. The EC50 was 0.308 µg/mL in assay [2] and 0.613 µg/mL in assay [3].

B2: 人源化7A7-1.2抗体 (antibody, human IgG1, kappa, V domains shown)
VH: QVQLVQSGAEVKKPGASVKVSCKASGYSFSGYTMNWVRQAPGQGLEWMGLISPYQGVTTYAQKFQGRVTMTVDTSTNTVYMELSSLRSEDTAVYYCARGVTVPLRFDVWGQGTLVTVSS
VL: DIQMTQSPSSLSASVGDRVTITCKSSQSLLNSGNQKNYLTWYQQKPGKAPKLLIYWASTRESGVPSRFSGSGSGTDFTLTISSLQPEDFATYYCQNDDSYPLTFGQGTKVEIKR
notes: human IgG1 / human kappa; also called Hz7A7-1.2
As for B2, the “IC50(ng/mL), 化学发光信号, 基于细胞的抗体阻断分析” value in assay [1] is 374 ng/mL. The EC50 was 0.68 µg/mL in assay [2] and 0.833 µg/mL in assay [3].

B3: 人源化7A7-2.1抗体 (antibody, human IgG1, kappa, V domains shown)
VH: QVQLVQSGAEVKKPGASVKVSCKASGYSFSGYTMNWVRQAPGQGLEWMGLISPYNGVTTYAQKFQGRVTMTVDTSTNTVYMELSSLRSEDTAVYYCARGVTVPLRFDVWGQGTLVTVSS
VL: DIQMTQSPSSLSASVGDRVTITCKSSQSLLQSGNQKNYLTWYQQKPGKAPKLLIYWASTRESGVPSRFSGSGSGTDFTLTISSLQPEDFATYYCQNDDSYPLTFGQGTKVEIKR
notes: human IgG1 / human kappa; also called Hz7A7-2.1
As to B3, the “IC50(ng/mL), 化学发光信号, 基于细胞的抗体阻断分析” value in assay [1] came out at 144 ng/mL. Further, the values for the EC50 in assay [2] and in assay [3] were 1.12 µg/mL and 0.924 µg/mL, respectively.

B4: 人源化24A3-1.1抗体 (antibody, human IgG1, kappa, V domains shown)
VH: QVQLVQSGAEVKKPGASVKVSCKASGYAFTNYLIEWVRQAPGQGLEWMGVINPVNGGISYAQKFQGRVTMTADKSTSTVYMELSSLRSEDTAVYYCARSGGNYGGDYWGQGTLVTVSS
VL: DVVMTQSPDSLAVSLGERATISCKASQSVSNEVAWYQQKPGQPPKLLIYYASHRYTGVPDRFSGSGSGTDFTLTISSLQAEDVAVYYCQQHFSSPLTFGQGTKVEIKR
notes: human IgG1 / human kappa; also called Hz24A3-1.1
On to B4, for which the “IC50(ng/mL), 化学发光信号, 基于细胞的抗体阻断分析” value in assay [1] worked out at 1950 ng/mL. Besides, the EC50 was found to be 0.167 µg/mL in assay [2] and 1.05 µg/mL in assay [3].

B5: 人源化24A3-1.2抗体 (antibody, human IgG1, kappa, V domains shown)
VH: QVQLVQSGAEVKKPGASVKVSCKASGYAFTNYLIEWVRQAPGQGLEWMGVINPVQGGISYAQKFQGRVTMTADKSTSTVYMELSSLRSEDTAVYYCARSGGNYGGDYWGQGTLVTVSS
VL: DVVMTQSPDSLAVSLGERATISCKASQSVSNEVAWYQQKPGQPPKLLIYYASHRYTGVPDRFSGSGSGTDFTLTISSLQAEDVAVYYCQQHFSSPLTFGQGTKVEIKR
notes: human IgG1 / human kappa; also called Hz24A3-1.2
For B5, the “IC50(ng/mL), 化学发光信号, 基于细胞的抗体阻断分析” value in assay [1] amounted to 1420 ng/mL. Further, the EC50 is 0.223 µg/mL in assay [2] and 0.62 µg/mL in assay [3].

B6: 人源化14E7-1.1抗体 (antibody, human IgG1, kappa, V domains shown)
VH: QVQLVQSGAEVKKPGASVKVSCKASGYSFTSYWMHWVRQAPGQGLEWMGMIDPSDSETRYAQKFQGRVTMTVDKSTSTVYMELSSLRSEDTAVYYCARWALQYFDYWGQGTLVTVSS
VL: DIQMTQSPSTLSASVGDRVTITCKASQNVGAAVAWYQQKPGKAPKLLIYSASNRYPGVPSRFSGSGSGTEFTLTISSLQPDDFATYYCQQYRPYPFTFGQGTKVEIKR
notes: human IgG1 / human kappa; also called Hz14E7-1.1
On to B6, for which the “IC50(ng/mL), 化学发光信号, 基于细胞的抗体阻断分析” value in assay [1] amounted to 112 ng/mL. The EC50 in assay [2] was 0.115 µg/mL; in assay [3] it was 0.443 µg/mL.

B7: 人源化14E7-1.2抗体 (antibody, human IgG1, kappa, V domains shown)
VH: QVQLVQSGAEVKKPGASVKVSCKASGYSFTSYWMHWVRQAPGQGLEWMGMIDPSESETRYAQKFQGRVTMTVDKSTSTVYMELSSLRSEDTAVYYCARWALQYFDYWGQGTLVTVSS
VL: DIQMTQSPSTLSASVGDRVTITCKASQNVGAAVAWYQQKPGKAPKLLIYSASNRYPGVPSRFSGSGSGTEFTLTISSLQPDDFATYYCQQYRPYPFTFGQGTKVEIKR
notes: human IgG1 / human kappa; also called Hz14E7-1.2
Turning to B7, the IC50(ng/mL), 化学发光信号, 基于细胞的抗体阻断分析 in assay [1] is 2660 ng/mL. Moreover, in assay [2], the response was half-maximal at 0.0333 µg/mL (EC50).

B8: 嵌合24A3抗体 (antibody, human IgG1, kappa, V domains shown)
VH: QVQLQQSGAEVVRSGTSVKVSCKASGYAFTNYLIEWVKQRPGQGLEWIGVINPVNGGISYNEKFKGKATLTADKSSSTVYMQLSSLTSDDSAVYFCIRSGGNYGGDYWGQGTTLTVSS
VL: DVVVTQTPKFLPVTAEDRVTITCKASQSVSNEVAWYQQKPGQSPKLLIYYASHRYTGVPDRFTGSGSGTDFTFTISSVQVEDLAVYFCQQHFSSPLTFGAGTKLELKR
notes: also called Xi24A3
In the case of B8, the “IC50(ng/mL), 化学发光信号, 基于细胞的抗体阻断分析” value in assay [1] came to 221 ng/mL. For the same molecule, the EC50 in assay [3] came out at 0.967 µg/mL.

B9: 嵌合25G4抗体 (antibody, human IgG1, kappa, V domains shown)
VH: QVQLQQPGVEVVRPGAPVKLSCKASGYTFTTNWMNWVKQRPGRGLEWIGRIDPSDSETHYNQQFKDKATLTVDKSSNTAYIQLSSLTSEDSAVYYCVREGIYGPWFAYWGQGTLVTVSA
VL: DIVMTQSPASLAVSLGQRATISCRASESVDNYGISLMHWYQQKPGQPPKLLIYRASDLESGIPARFSGSGSRTDFTLTINPVETDDVATYYCQQSDKDPPTFGAGTKLELKR
notes: also called Xi25G4
Regarding B9, the “IC50(ng/mL), 化学发光信号, 基于细胞的抗体阻断分析” value in assay [1] came out at 680 ng/mL. For the same molecule, it took 0.54 µg/mL to reach a half-maximal effect in assay [3] (EC50).

B10: 人源化25G4-1.1抗体 (antibody, human IgG1, kappa, V domains shown)
VH: QVQLVQSGAEVKKPGASVKVSCKASGYTFTTNWMNWVRQAPGQGLEWMGRIDPSDSETHYAQKFQGRVTMTVDKSTNTVYMELSSLRSEDTAVYYCVREGIYGPWFAYWGQGTLVTVSS
VL: DIQMTQSPSSLSASVGDRVTITCRASESVDNYGISLMHWYQQKPGKAPKLLIYRASDLESGVPSRFSGSGSRTDFTLTISSLQPEDFATYYCQQSDKDPPTFGQGTKVEIKR
notes: human IgG1 / human kappa; also called Hz25G4-1.1
B10: the “IC50(ng/mL), 化学发光信号, 基于细胞的抗体阻断分析” value in assay [1] stood at 1000 ng/mL. Further, the results for the EC50 in assay [2] and in assay [3] were 0.0689 µg/mL and 0.483 µg/mL, respectively.

B11: 人源化25G4-1.2抗体 (antibody, human IgG1, kappa, V domains shown)
VH: QVQLVQSGAEVKKPGASVKVSCKASGYTFTTNWMNWVRQAPGQGLEWMGRIDPSESETHYAQKFQGRVTMTVDKSTNTVYMELSSLRSEDTAVYYCVREGIYGPWFAYWGQGTLVTVSS
VL: DIQMTQSPSSLSASVGDRVTITCRASESVDNYGISLMHWYQQKPGKAPKLLIYRASDLESGVPSRFSGSGSRTDFTLTISSLQPEDFATYYCQQSDKDPPTFGQGTKVEIKR
notes: human IgG1 / human kappa; also called Hz25G4-1.2
Regarding B11, the IC50(ng/mL), 化学发光信号, 基于细胞的抗体阻断分析 in assay [1] worked out at 700 ng/mL. In addition, it took 0.0874 µg/mL to reach a half-maximal effect in assay [2] (EC50).

B12: 嵌合7A7抗体 (antibody, human IgG1, kappa, V domains shown)
VH: EVQLQQSGPELVKPGASMKISCKASGYSFSGYTMNWVKQSLGKNLEWIGLISPYNGVTTYNQKFKGKASLTVDTSSNTAYMELLSLTSDDSAVYYCARGVTVPLRFDVWGAGTPVTVSS
VL: DIVMTQSPSSLTVTTGEKVTMSCKSSQSLLNSGNQKNYLTWYQQKTGQPPKLLIYWASTRESGVPDRFTGSGSGTDFTLTINNVQAEDLAVYYCQNDDSYPLTFGAGTKLELKR
notes: made in Expi-CHO; also called Xi7A7
With B12, in assay [3], the midpoint of the response, the EC50, lay at 0.43 µg/mL.

B13: 嵌合14E7抗体 (antibody, human IgG1, kappa, V domains shown)
VH: QVQLQQSGPQLVRPGASVKISCKASGYSFTSYWMHWVKQRPGQGLDWIGMIDPSDSETRLNQKFKDKATLTVDKSSSTAYMQLSSPTSEDSAVYYCARWALQYFDYWGQGTTLTVSS
VL: DIVMTQSQKFMSTTVGDRVSITCKASQNVGAAVAWYQQKPGQSPKLLIYSASNRYPGVPDRFTGSGSGTDFTLTISNMHSEDLADYFCQQYRPYPFTFGGGTKLEIKR
notes: also called Xi14E7
Consider B13, for which the “IC50(ng/mL), 化学发光信号, 基于细胞的抗体阻断分析” value in assay [1] was found to be 342 ng/mL. In assay [3], this molecule showed an EC50 of 1.12 µg/mL.

One may read the EC50 as the concentration that produces a half-maximal response. Read a low EC50 as greater potency.
